This series deals with the molecule itself. Briefly: SEC; Superdex 200 10/30; running buffer 25 mM Tris-HCl pH 8.0, 100 mM NaCl, 10% glycerol; 600 ug of HSP90.5 62-780 or 200 ug of FLAG-tagged HSP90.5 62-780 loaded; fractions analysed by SDS-PAGE.

By stoichiometry N is commonly meant the number of molecules, sites or subunits per partner or assembly.

B1: C-terminally FLAG-tagged mature HSP90.5 (HSP90.5 62-780 FLAG), N-terminally His6-tagged (domain or fragment, Arabidopsis thaliana, UniProt Q9SIF2 62-780, looked up)
chain: DAAVAEKETTEEGSGEKFEYQAEVSRLLDLIVHSLYSHKEVFLRELVSNASDALDKLRFLSVTEPSLLGDGGDLEIRIKPDPDNGTITITDTGIGMTKEELIDCLGTIAQSGTSKFLKALKENKDLGADNGLIGQFGVGFYSAFLVAEKVVVSTKSPKSDKQYVWESVADSSSYLIREETDPDNILRRGTQITLYLREDDKYEFAESTRIKNLVKNYSQFVGFPIYTWQEKSRTIEVEEDEPVKEGEEGEPKKKKTTKTEKYWDWELANETKPLWMRNSKEVEKGEYNEFYKKAFNEFLDPLAHTHFTTEGEVEFRSILYIPGMGPLNNEDVTNPKTKNIRLYVKRVFISDDFDGELFPRYLSFVKGVVDSDDLPLNVSREILQESRIVRIMRKRLIRKTFDMIQEISESENKEDYKKFWENFGRFLKLGCIEDTGNHKRITPLLRFFSSKNEEELTSLDDYIENMGENQKAIYYLATDSLKSAKSAPFLEKLIQKDIEVLYLVEPIDEVAIQNLQTYKEKKFVDISKEDLELGDEDEVKDREAKQEFNLLCDWIKQQLGDKVAKVQVSNRLSSSPCVLVSGKFGWSANMERLMKAQALGDTSSLEFMRGRRILEINPDHPIIKDLNAACKNAPESTEATRVVDLLYDTAIISSGFTPDSPAELGNKIYEMMAMAVGGRWGRVEEEEESSTVNEGDDKSGETEVVEPSEVRAESDPWQD
notes: Arabidopsis thaliana chloroplast HSP90.5, predicted mature form, residues 62-780, amplified from pGWB402Ω-HSP90.5FLAG and cloned into pProEXHTb; also called HSP90.5FLAG; FLAG-tagged HSP90.5; source: E. coli, purified (Ni-NTA); not shown: FLAG, C-terminal, kept
Regarding B1, the “stoichiometry N” value was found to be 2.

B2: mature HSP90.5 (HSP90.5 62-780), N-terminally His6-tagged (domain or fragment, Arabidopsis thaliana, UniProt Q9SIF2 62-780, looked up)
chain: DAAVAEKETTEEGSGEKFEYQAEVSRLLDLIVHSLYSHKEVFLRELVSNASDALDKLRFLSVTEPSLLGDGGDLEIRIKPDPDNGTITITDTGIGMTKEELIDCLGTIAQSGTSKFLKALKENKDLGADNGLIGQFGVGFYSAFLVAEKVVVSTKSPKSDKQYVWESVADSSSYLIREETDPDNILRRGTQITLYLREDDKYEFAESTRIKNLVKNYSQFVGFPIYTWQEKSRTIEVEEDEPVKEGEEGEPKKKKTTKTEKYWDWELANETKPLWMRNSKEVEKGEYNEFYKKAFNEFLDPLAHTHFTTEGEVEFRSILYIPGMGPLNNEDVTNPKTKNIRLYVKRVFISDDFDGELFPRYLSFVKGVVDSDDLPLNVSREILQESRIVRIMRKRLIRKTFDMIQEISESENKEDYKKFWENFGRFLKLGCIEDTGNHKRITPLLRFFSSKNEEELTSLDDYIENMGENQKAIYYLATDSLKSAKSAPFLEKLIQKDIEVLYLVEPIDEVAIQNLQTYKEKKFVDISKEDLELGDEDEVKDREAKQEFNLLCDWIKQQLGDKVAKVQVSNRLSSSPCVLVSGKFGWSANMERLMKAQALGDTSSLEFMRGRRILEINPDHPIIKDLNAACKNAPESTEATRVVDLLYDTAIISSGFTPDSPAELGNKIYEMMAMAVGGRWGRVEEEEESSTVNEGDDKSGETEVVEPSEVRAESDPWQD
notes: Arabidopsis thaliana chloroplast HSP90.5, predicted mature form, residues D62-D780, cloned from an HSP90.5 cDNA into the p11 vector; also called wild type HSP90.5; AtHSP90.5; source: E. coli, purified (Ni-NTA)
Take B2: the “stoichiometry N” value stood at 2.

Source of the values: article PMC4168064, “Cosuppression of the chloroplast localized molecular chaperone HSP90.5 impairs plant development and chloroplast biogenesis in Arabidopsis” (BMC Research Notes, 2014).
